# Results from patent US11701440B2, “Modified antibody and radioactive metal-labelled antibody” (NIHON MEDI-PHYSICS CO., LTD., priority 2018, dated 2023).
# Assay: Animal Experiment (1): radioactivity distribution of 111In-labeled NGA in organs after tail vein administration
# Method: Five mice per group were slaughtered 5 minutes or 1 hour after the administration, the blood and organs of interest were recovered, and after measuring the organ weight, the radioactivity was measured with an auto-well gamma counter.
# [1] = mouse, in vivo, iv, 11.1 kBq/8 ug protein/100 uL/mouse, 5 min
# [2] = mouse, in vivo, iv, 11.1 kBq/8 ug protein/100 uL/mouse, 1 h
# [3] = 5 minutes after the administration, tail vein, male ddY mouse
# [4] = 1 hour after the administration, tail vein, male ddY mouse
substance,measurement,setting,value
^111In-DO3ABn-Phe-Lys-NGA,radioactivity (% ID) Blood,[1],0.1 ± 0.0 % ID
same,radioactivity (% ID) Kidney,[1],0.2 ± 0.0 % ID
same,radioactivity (% ID) Liver,[1],91.1 ± 6.2 % ID
same,radioactivity (% ID) Lung,[1],0.1 ± 0.0 % ID
same,radioactivity (% ID) Small intestine,[1],0.1 ± 0.1 % ID
same,radioactivity (% ID) Spleen,[1],0.2 ± 0.0 % ID
same,radioactivity (% ID) Stomach,[1],0.1 ± 0.1 % ID
same,radioactivity (% ID) Kidney,[2],0.9 ± 0.3 % ID
same,radioactivity (% ID) Liver,[2],49.5 ± 5.6 % ID
same,radioactivity (% ID) Lung,[2],0.1 ± 0.1 % ID
same,radioactivity (% ID) Small intestine,[2],27.8 ± 6.5 % ID
same,radioactivity (% ID) Spleen,[2],0.2 ± 0.1 % ID
same,radioactivity (% ID) Stomach,[2],1.1 ± 0.7 % ID
^111In-DO3ABn-Gly-Lys-NGA,radioactivity (% ID) Blood,[3],0.1 ± 0.2 % ID
same,radioactivity (% ID) Heart,[3],0.0 ± 0.0 % ID
same,radioactivity (% ID) Kidney,[3],0.1 ± 0.0 % ID
same,radioactivity (% ID) Liver,[3],89.5 ± 3.4 % ID
same,radioactivity (% ID) Lung,[3],0.1 ± 0.1 % ID
same,radioactivity (% ID) Pancreas,[3],0.0 ± 0.0 % ID
same,radioactivity (% ID) Small intestine,[3],0.1 ± 0.1 % ID
same,radioactivity (% ID) Spleen,[3],0.2 ± 0.0 % ID
same,radioactivity (% ID) Stomach,[3],0.1 ± 0.1 % ID
same,radioactivity (% ID) Blood,[4],0.0 ± 0.0 % ID
same,radioactivity (% ID) Heart,[4],0.0 ± 0.0 % ID
same,radioactivity (% ID) Kidney,[4],0.2 ± 0.0 % ID
same,radioactivity (% ID) Liver,[4],89.1 ± 1.2 % ID
same,radioactivity (% ID) Lung,[4],0.0 ± 0.0 % ID
same,radioactivity (% ID) Pancreas,[4],0.0 ± 0.0 % ID
same,radioactivity (% ID) Small intestine,[4],2.5 ± 0.7 % ID
same,radioactivity (% ID) Spleen,[4],0.2 ± 0.0 % ID
same,radioactivity (% ID) Stomach,[4],0.1 ± 0.1 % ID
